This data set can be described thus: yeast display, Sf9 membrane polyspecificity reagent, FACS + sequencing; frameworks hold sequencing errors. In outline: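 Synthetic nanobody libraries on Saccharomyces cerevisiae BJ5465 were galactose-induced for 36–48 hours, stained 1 hour at 4 °C with 10% biotinylated, detergent-solubilized Sf9 membrane reagent and enriched on streptavidin microbeads. FACS then separated cells into low and high (top ~1%) gates by anti-HA (expression) and streptavidin (reagent binding) fluorescence. Genes were colony-PCR amplified, MiSeq 2 × 250 sequenced and CDR-length filtered. A clone's polyreactivity label is that of its gate of origin.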
Turning to “QVQLVESGGGLVQAGGSLRLSCAASGSTIYFNAMGWYRQAPGKERELVAAIDWSGGSTYYADSVKGRFTISRDNAKNTFYLHMNSLKPEDTAVYYCAAAYHYYGNTVGYADYDYWGQGNQVTVSS”, the “polyreactivity (PSR sort gate)” value is “low polyreactivity”.
As for “QVQLVESGGGLVQAGGSLRLSCAASGSTIYFNGMGWYRQAPGKERELVAAITSGGSTDYADSVKGRFTISRDNAKNTVDLQMNSLKPEDTAVYYCAADGEDSLWTGYDYDYWGQGTQVTVSS”, the entry is “low polyreactivity”; as for “QVQLVESGGGLVQAGGSLRLSCAASGSTIYFYAMGWYRQAPGKERELVAAISGSGGRTYYADSVKGRFTISRDNAKNTVYLQMNSLKPEDTAVYYCAAEWYPYSDREFLYYYWGQGTQVTVSS”, “high polyreactivity”; as for “QVQLVESGGGLVQAGGSLRLSCAASGSTIYGYAMGWYRQAPGKERELVAAISWSGGRTYYADSVKGRFTISRDNAKNTVYLQMNSLNPVDTAVYYCNTLRRLTGRYGWSSKYYYWGQGTQVTVSS”, “high polyreactivity”.
The value for “QVQLVESGGGLVQAGGSLRLSCAASGSTIYNNAMGWYRQAPGKERELVAAITRTGGRTYYADSVKGRFTITRDNAKNTVYLQMNSLKREDTAVYYCAATYPSGRDLSFDYWGQGTQVTVSS” was “high polyreactivity”; that for “QVQLVESGGGLVQAGGSLRLSCAASGSTIYRNTMGWYRQAPGKERELVAAISRSGSSTYYADSVKGRFTISRDNAKNTVFLQINSLKPEDTAVYYCAKEGLSYRYYYWGQGTQLTVSS” was “high polyreactivity”.
On to “QVQLVESGGGLVQAGGSLRLSCAASGSTIYSYTMGWYRQAPGKERELVAAISRGSSTYYADSVKGRFTISRDNAKNTVYLQMNSLKPEDTAVYYCAAQYRQIYYSYFEYYWGQGTQVTVSS”, for which the “polyreactivity (PSR sort gate)” value is “high polyreactivity”.
As for “QVQLVESGGGLVQAGGSLRLSCAASGSTLANYAMGWYRQAPGKERELVAAINSGGSTYYADSVKGRFTISRDNAKNTVYLQMNSLKPEDTAVYYCAAETPNYYGRWEPVWHYYWGQGTQVTVSS”, the entry is “high polyreactivity”.
As for “QVQLVESGGGLVQAGGSLRLSCAASGSTLARYAMGWYRQAPGKERELVAAISWIGGSTYYADSVKGRFTISRDNAKNTVYLQMNSLKPEDTAVYFCAKDTYPWYIRNRYDYWGQGSQVTVSS”, the entry is “high polyreactivity”; as for “QVQLVESGGGLVQAGGSLRLSCAASGSTLAVYAMGWYRQAPGKEREFFAAISWSGVSTYYADSVKGRFTISRDNAKNTVYLQMNSLKPEDTAVYYCAAKRVRALYGGSEGGYWGQGTQVTVSS”, “low polyreactivity”; as for “QVQLVESGGGLVQAGGSLRLSCAASGSTLDFYAMGWYRPAPGKERELVAAITWRGGSTYYADSVKGRFTISRDNAKNTVYLQMNCLKPEDTAVYYCAAKSYWLKSQYYSWGQGTQVTVSS”, “high polyreactivity”.
As for “QVQLVESGGGLVQAGGSLRLSCAASGSTLDRYVMGWYRQAPGKERELVAAISRNGGSTYYADSVKGRFTISRDNAKNTVYLQMNSLKPEDTAVYYCARYAGFPYTQGDYWGQGTQVTVSS”, the entry is “high polyreactivity”.
“QVQLVESGGGLVQAGGSLRLSCAASGSTLDTNAMGWYRQAPGKERELVAVIDSGGTTNYADSVKGRFTISRDNAKNTVYLQMNSLKPEDTAVYYCAADYAYFGYWFEGYDYWGQGTQVTVSS”: the “polyreactivity (PSR sort gate)” value was “low polyreactivity”.
Consider “QVQLVESGGGLVQAGGSLRLSCAASGSTLERNAMGWYRQAPGKERELVAAITSSTGSTYYADSVKGRFTISRDNAKNTVYLQMNSLKPEDTAVYYFAKRVASVQSNRHDYWGQGTQVTVSS”, for which the “polyreactivity (PSR sort gate)” value is listed as “high polyreactivity”.
As for “QVQLVESGGGLVQAGGSLRLSCAASGSTLFNYTMGWYRQAPGKESELVAAISSGGSTNYADSEKGRFTISRDNAKNTFYLQMNSLKPEDTAVYYCATDHDPWSWYRYDYWGQGTQVTVSS”, the entry is “low polyreactivity”; as for “QVQLVESGGGLVQAGGSLRLSCAASGSTLFVNTKGWYRQAPGNERELVAAITSSGGSRYYADSVKGRFTISRDNAKNTVYLQMNSLKPQDTAVYYCAAKELGSPYDYWGQGTQVTVSS”, “high polyreactivity”.
